Like-named read-outs stand apart in the source and are kept apart here.
Target: T1, IscR (Pseudomonas aeruginosa PAO1) (UniProt Q9HXI7)
T1 sequence: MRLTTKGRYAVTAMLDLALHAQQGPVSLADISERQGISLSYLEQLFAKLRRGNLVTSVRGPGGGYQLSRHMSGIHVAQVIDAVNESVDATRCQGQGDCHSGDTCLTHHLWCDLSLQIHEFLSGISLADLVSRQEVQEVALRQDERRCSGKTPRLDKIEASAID
Experiment: EMSA

Sequence	binding (20 mM Tris-HCl pH 8.0, 50 mM KCl, 4 mM MgCl2, 0.5 mM EDTA, 0.02 mg/ml BSA, 5 mM DTT, 10% glycerol, 200 ng poly(dI-dC), 3 fmol probe in 25 ul, 25 C 20 min, 7% …)	binding
GTCAACCGCAAGCGCTGATCGGCCGCTGGCTATCCCCGTCAGCGGGGATAGCCACAAGCCTTGCGGGTGTTTCTGCCGGGTGCTTTGCGGGACACTAGGGGAGTATCGGTATCCGGAGCGGACCATGACCGCCAGCGAAGAGAAATTCACCCGCCAGACGCTGCTCGACGTGCAGCCTCTGACT (double strand) [fprB promoter fragment (native), 184 bp]	binds	–
GTCAACCGCAAGCGCTGATCGGCCGCTGGCTATCCCCGTCAGCGGGGATATTTACAAGCCTTGCGGGTGTTTCTGCCGGGTGCTTTGCGGGACACTAGGGGAGTATCGGTATCCGGAGCGGACCATGACCGCCAGCGAAGAGAAATTCACCCGCCAGACGCTGCTCGACGTGCAGCCTCTGACT (double strand) [fprB promoter fragment, IscR site GCC to TTT]	–	no binding

— publication PMC4521836
